Measurements reported in IntAct's records for PubMed 24553140.

B1: Autophagy-related protein 16-1 (Mus musculus), Q8C0J2 (parent)
chain: MSSGLRAADFPRWKRHIAEELRRRDRLQRQAFEEIILQYTKLLEKSDLHSVLTQKLQAEKHDMPNRHEISPGHDGAWNDSQLQEMAQLRIKHQEELTELHKKRGELAQLVIDLNNQMQQKDKEIQMNEAKISEYLQTISDLETNCLDLRTKLQDLEVANQTLKDEYDALQITFTALEEKLRKTTEENQELVTRWMAEKAQEANRLNAENEKDSRRRQARLQKELAEAAKEPLPVEQDDDIEVIVDETSDHTEETSPVRAVSRAATKRLSQPAGGLLDSITNIFGRRSVSSIPVPQDIMDTHPASGKDVRVPTTASYVFDAHDGEVNAVQFSPGSRLLATGGMDRRVKLWEAFGDKCEFKGSLSGSNAGITSIEFDSAGAYLLAASNDFASRIWTVDDYRLRHTLTGHSGKVLSAKFLLDNARIVSGSHDRTLKLWDLRSKVCIKTVFAGSSCNDIVCTEQCVMSGHFDKKIRFWDIRSESVVREMELLGKITALDLNPERTELLSCSRDDLLKVIDLRTNAVKQTFSAPGFKCGSDWTRVVFSPDGSYVAAGSAEGSLYVWSVLTGKVEKVLSKQHSSSINAVAWAPSGLHVVSVDKGSRAVLWAQP

Variants of: B1
Conditions: with mlp3a_mouse Map1lc3a

effect of a mutation on the interaction | Variant
decreasing interaction | T300A
